The target in assay [1] is RBD polypeptide (RBD portion of the SARS-CoV-2 S1 spike protein) (SARS-CoV-2) (UniProt P0DTC2). Description: BLI, biotinylated antibody on streptavidin tip, RBD polypeptide in PBS; row for 100 nM RBD.
The target is the same in assay [2]. Briefly: BLI, biotinylated antibody on streptavidin tip, RBD polypeptide in PBS; row for 10 nM RBD. (In BLI a coated tip is dipped into the sample, and binding shifts an interference pattern.)

As usually defined, the Kd is the equilibrium constant for the complex coming apart. Low values mean higher affinity, high ones lower affinity. One may read the koff as a measure of how fast the partners let go of each other. A low value points to a long-lived complex. The kon is the second-order rate constant of association. Higher therefore signals faster complex formation. In assay [1], Ty1-Biotin (VHH) displayed a Kd of 9.93 nM, an off-rate (koff) of 0.00101 s⁻¹ and a kon of 102000 M⁻¹ s⁻¹. In addition, in assay [2], the Kd came out at 9.93 nM, the koff was determined as 0.00101 s⁻¹ and the on-rate constant (kon) turned out to be 102000 M⁻¹ s⁻¹.
